Target: the molecule itself
Assay: SEC; analytical gel filtration, Superdex 75 10/300 GL, 10 mM Tris-HCl pH 8.5, 100 mM NaCl, 1 mM DTT; calibrated with BSA (66 kDa) and rabbit IgG (150 kDa)

B1: MaoC-like hydratase from Phytophthora capsici (enzyme)
chain: MSVNVDKILNSPEATYTATYNQRDLLMYAVGIGESDLQFTYEFDEKFSAFPLYPVCLPFKGQSQDVVPFPPETISAAPDGMPSFNPAMILHGEQSVEILRPLDPSGGTLTGKTKVISFYDKGKGTLMETQTQFEDGNGPVAKLISGSFIRGLTGYEGKGRKLPARVQIPKRQPDFNDEFKTSPHQAQVYRLSGDYNSLHIDPEIAKSVGFKQPILHGLCSMGVASRALFKQFCGGDVARFKSIRVRFSSPCFPGETIQTRMWQEGSGKVLFQAVVKERGAVIVDGGEFVYTQDASARL
notes: MaoC-like hydratase, Phytophthora capsici strain SD33, full length (Met-1 to Leu-298); Cloned BamHI/EcoRI into pET28a; no step that removes the tag is described, and the purified enzymes were detected with anti-His antibody on western blots; also called wild type MaoC; native MaoC; source: E. coli BL21 (DE3) pLysS, purified (Ni-NTA, Superdex-75 gel filtration)
In the case of B1, the “stoichiometry N” value is reported as 2.

B2: MaoC Del63-88 (enzyme)
chain: MSVNVDKILNSPEATYTATYNQRDLLMYAVGIGESDLQFTYEFDEKFSAFPLYPVCLPFKGQILHGEQSVEILRPLDPSGGTLTGKTKVISFYDKGKGTLMETQTQFEDGNGPVAKLISGSFIRGLTGYEGKGRKLPARVQIPKRQPDFNDEFKTSPHQAQVYRLSGDYNSLHIDPEIAKSVGFKQPILHGLCSMGVASRALFKQFCGGDVARFKSIRVRFSSPCFPGETIQTRMWQEGSGKVLFQAVVKERGAVIVDGGEFVYTQDASARL
notes: MaoC-like hydratase, Phytophthora capsici strain SD33, full length with residues 63-88 deleted; Made from the wild-type plasmid (pET28-MaoC) with the MutanBEST kit; source: E. coli BL21 (DE3) pLysS, purified as described for the wild-type protein
B2: binds.

B3: MaoC Del63-71 (enzyme)
chain: MSVNVDKILNSPEATYTATYNQRDLLMYAVGIGESDLQFTYEFDEKFSAFPLYPVCLPFKGQETISAAPDGMPSFNPAMILHGEQSVEILRPLDPSGGTLTGKTKVISFYDKGKGTLMETQTQFEDGNGPVAKLISGSFIRGLTGYEGKGRKLPARVQIPKRQPDFNDEFKTSPHQAQVYRLSGDYNSLHIDPEIAKSVGFKQPILHGLCSMGVASRALFKQFCGGDVARFKSIRVRFSSPCFPGETIQTRMWQEGSGKVLFQAVVKERGAVIVDGGEFVYTQDASARL
notes: MaoC-like hydratase, Phytophthora capsici strain SD33, full length with residues 63-71 deleted; Made from the wild-type plasmid (pET28-MaoC) with the MutanBEST kit; source: E. coli BL21 (DE3) pLysS, purified as described for the wild-type protein
B3: binds.

Source: paper PMC3823801, “Structure Reveals Regulatory Mechanisms of a MaoC-Like Hydratase from Phytophthora capsici Involved in Biosynthesis of Polyhydroxyalkanoates (PHAs)” (PLoS ONE, 2013)
